# Test results reported in US20260109755A1 (published 2026).
# T1: SH3 domain-containing YSC84-like 1 (SH3YL1), antigen of the antibodies (UniProt Q96HL8 1-342)
# T1 chain: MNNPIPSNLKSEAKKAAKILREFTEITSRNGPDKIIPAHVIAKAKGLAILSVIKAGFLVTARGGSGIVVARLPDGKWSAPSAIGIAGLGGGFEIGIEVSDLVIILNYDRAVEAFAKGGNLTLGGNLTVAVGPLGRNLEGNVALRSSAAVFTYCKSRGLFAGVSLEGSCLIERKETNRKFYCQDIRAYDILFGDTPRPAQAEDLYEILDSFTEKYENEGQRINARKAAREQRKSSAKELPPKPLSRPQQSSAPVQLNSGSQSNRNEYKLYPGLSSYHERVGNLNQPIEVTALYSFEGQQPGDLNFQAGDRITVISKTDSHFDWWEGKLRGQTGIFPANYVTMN
# Target: T1, SH3 domain-containing YSC84-like 1 …
row,Kd,Binder
1,3.56 nM,"3E11 antibody (antibody, V domains shown) VH: not shown VL: DIQMTQSPSSLSASVGDRVTITCRASQDIANYLNWYQQKPGKAPKLLIYATSTLQSGVPSRFSGSGSGTDFTLTISSLQPEDFATYYCQQSYSSPWTFGQGTKVEIKR"
2,3.63 nM,"4F9 antibody (antibody, V domains shown) VH: EVQLVESGGGLVQPGGSLRLSCAASGFTFSDYAMSWVRQAPGKGLEWVSAIKSSGSSTYYADSVKGRFTISRDNSKNTLYLQMNSLRAEDTAVYYCAKAEYEYLAFDIWGQGTLVTVSS VL: DIQMTQSPSSLSASVGDRVTITCRASQDISSWLNWYQQKPGKAPKLLIYATSTLQSGVPSRFSGSGSGTDFTLTISSLQPEDFATYYCQQSYSSPWTFGQGTKVEIKR"
3,0.404 nM,"4F10 antibody (antibody, V domains shown) VH: EVQLVESGGGLVQPGGSLRLSCAASGFTFSDYAMSWVRQAPGKGLEWVSAIYSTGSSTYYADSVKGRFTISRDNSKNTLYLQMNSLRAEDTAVYYCAKVGWYLFDYWGQGTLVTVSS VL: DIQMTQSPSSLSASVGDRVTITCRASQSISRYLNWYQQKPGKAPKLLIYATSRLQSGVPSRFSGSGSGTDFTLTISSLQPEDFATYYCQQSYSSPWTFGQGTKVEIKR"
4,2.96 nM,"4G4 antibody (antibody, V domains shown) VH: not shown VL: DIQMTQSPSSLSASVGDRVTITCRASQSISNWLNWYQQKPGKAPKLLIYAASRLQSGVPSRFSGSGSGTDFTLTISSLQPEDFATYYCQQSYSSPWTFGQGTKVEIKR"
5,5.49 nM,"5D5 antibody (antibody, V domains shown) VH: EVQLVESGGGLVQPGGSLRLSCAASGFTFSDYAMSWVRQAPGKGLEWVSSISSTGSTTYYADSVKGRFTISRDNSKNTLYLQMNSLRAEDTAVYYCAKVLYEYLYFDYWGQGTLVTVSS VL: DIQMTQSPSSLSASVGDRVTITCRASQDIRNWLNWYQQKPGKAPKLLIYAASSLQSGVPSRFSGSGSGTDFTLTISSLQPEDFATYYCQQSYSSPWTFGQGTKVEIKR"
6,3.43 nM,"4H7 antibody (antibody, V domains shown) VH: EVQLVESGGGLVQPGGSLRLSCAASGFTFSTYGMSWVRQAPGKGLEWVSAISSSGGSIYYADSVKGRFTISRDNSKNTLYLQMNSLRAEDTAVYYCAKVSYPGLAFDIWGQGTLVTVSS VL: DIQMTQSPSSLSASVGDRVTITCRASQTISNYLNWYQQKPGKAPKLLIYATSSLQSGVPSRFSGSGSGTDFTLTISSLQPEDFATYYCQQSYSSPWTFGQGTKVEIKR"
7,2.06 nM,"S4A antibody (antibody, V domains shown) VH: EVQLLESGGGLVQPGGSLRLSCAASGFTFSSYSMNWVRQAPGKGLEWVSWISPNSGSTDYAQKFQGRFTISRDNSKNTLYLQMNSLRAEDTAVYYCARTPPGTPFDYWGQGTLVTVSS VL: QSVLTQPPSASGTPGQRVTISCSGNNIGSKSVHWYQQLPGTAPRLLIYSTSNKHSGVPDRFSGSKSGTSASLAISGLHSEDEADYYCSSYTSSGTRVFGGGTKLTVLG"
